Read-outs that look alike come from different tables or passages of the source.
T1: MBP:Hts^1-319 (Drosophila (S2 cell cDNA library))
T1 chain: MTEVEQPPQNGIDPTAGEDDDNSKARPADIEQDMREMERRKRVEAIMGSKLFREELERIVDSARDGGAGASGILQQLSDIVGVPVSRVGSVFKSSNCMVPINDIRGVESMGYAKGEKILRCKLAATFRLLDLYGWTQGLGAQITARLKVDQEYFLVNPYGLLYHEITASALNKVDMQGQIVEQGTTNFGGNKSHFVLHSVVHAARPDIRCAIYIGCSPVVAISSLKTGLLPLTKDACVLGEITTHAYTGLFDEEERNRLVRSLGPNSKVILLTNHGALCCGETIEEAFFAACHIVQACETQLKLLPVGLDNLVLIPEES

T2: MBP:Hts^FL (Drosophila (S2 cell cDNA library))
T2 chain: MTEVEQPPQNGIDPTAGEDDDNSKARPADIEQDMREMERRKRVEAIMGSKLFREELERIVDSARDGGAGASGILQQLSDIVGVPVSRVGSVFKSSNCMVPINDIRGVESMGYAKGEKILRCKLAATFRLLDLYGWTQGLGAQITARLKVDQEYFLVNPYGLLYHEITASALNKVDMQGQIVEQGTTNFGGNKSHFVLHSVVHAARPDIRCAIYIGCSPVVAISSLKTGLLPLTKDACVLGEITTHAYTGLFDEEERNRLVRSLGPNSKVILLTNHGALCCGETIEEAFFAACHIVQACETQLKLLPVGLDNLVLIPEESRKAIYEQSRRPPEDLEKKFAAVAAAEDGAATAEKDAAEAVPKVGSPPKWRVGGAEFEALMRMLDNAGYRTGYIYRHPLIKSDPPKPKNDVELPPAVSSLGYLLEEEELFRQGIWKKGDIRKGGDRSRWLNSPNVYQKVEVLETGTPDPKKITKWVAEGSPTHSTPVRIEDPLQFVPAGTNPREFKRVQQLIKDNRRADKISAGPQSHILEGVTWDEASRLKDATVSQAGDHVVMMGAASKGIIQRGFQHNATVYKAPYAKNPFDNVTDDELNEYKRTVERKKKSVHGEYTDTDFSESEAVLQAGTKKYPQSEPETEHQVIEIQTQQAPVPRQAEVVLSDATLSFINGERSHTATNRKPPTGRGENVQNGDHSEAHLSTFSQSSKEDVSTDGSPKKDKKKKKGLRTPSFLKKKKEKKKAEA

T3: MBP:Hts^ALDO (Drosophila (S2 cell cDNA library))
T3 chain: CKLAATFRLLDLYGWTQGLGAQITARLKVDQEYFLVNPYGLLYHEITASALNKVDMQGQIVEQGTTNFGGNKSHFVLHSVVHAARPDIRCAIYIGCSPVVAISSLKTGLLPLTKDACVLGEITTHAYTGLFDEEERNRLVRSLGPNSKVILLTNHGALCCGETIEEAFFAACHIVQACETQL

T4: GST-fused Pins^TPR domains (Drosophila (S2 cell cDNA library), UniProt Q9VB22 1-658)
T4 chain: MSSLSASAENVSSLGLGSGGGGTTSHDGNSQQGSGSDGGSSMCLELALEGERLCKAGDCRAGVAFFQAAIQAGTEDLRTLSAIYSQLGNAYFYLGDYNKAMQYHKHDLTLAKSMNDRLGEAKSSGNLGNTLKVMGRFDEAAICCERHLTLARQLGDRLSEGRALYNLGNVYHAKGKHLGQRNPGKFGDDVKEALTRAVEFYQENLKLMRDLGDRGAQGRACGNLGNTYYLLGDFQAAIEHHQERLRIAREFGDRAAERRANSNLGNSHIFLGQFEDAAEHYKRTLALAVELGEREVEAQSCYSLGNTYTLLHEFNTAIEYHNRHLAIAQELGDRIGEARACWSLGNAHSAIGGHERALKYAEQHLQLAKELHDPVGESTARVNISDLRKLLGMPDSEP


Columns and labels:
[1] = target: T1, MBP:Hts^1-319
[2] = target: T2, MBP:Hts^FL
[3] = target: T3, MBP:Hts^ALDO
[4] = target: T2, MBP:Hts^FL
[5] = target: T4, GST-fused Pins^TPR domains

Binder	Kd [1] [nM]	Kd [2] [nM]	Kd [3] [nM]	Kd [4] [nM]	Kd [5] [nM]
Mud^CC-PBD (domain or fragment, 6xHis tag removed by TEV. Limits not printed: start set just before L1788 (N-terminal end of the CC), end at the conventional PBD boundary (about 1982). Needs the NB isoform that includes the CC and PBD exons. Three copies follow from the predicted parallel trimer.) KLALDCKILQAKYRDAKDEIKRCEKKIKDQRLEMEGKLEKMKNKMRSLYTAEVTRMKEKQERDAAKSASELEALTAQNAKYEEHTRKLSNQIVRLNEKILEQQKQHAIISTNLRHLQMQPISETKPSSTTLTVSSSSSAPNDDWQPFKRPNVPSSNLAMEDEEGEVFNNTYLTDLKLGRVPADMTAEELIYRNSLQPPHLKST	550	620	760	1620	186
Mud^CC-PBD L1788E/I1878D (ED) mutant (domain or fragment, 6xHis tag removed by TEV. The mutations disrupt the coiled-coil trimer. Limits not given, set by convention as for the wild type.) KLALDCKIEQAKYRDAKDEIKRCEKKIKDQRLEMEGKLEKMKNKMRSLYTAEVTRMKEKQERDAAKSASELEALTAQNAKYEEHTRKLSNQIVRLNEKDLEQQKQHAIISTNLRHLQMQPISETKPSSTTLTVSSSSSAPNDDWQPFKRPNVPSSNLAMEDEEGEVFNNTYLTDLKLGRVPADMTAEELIYRNSLQPPHLKST	–	–	–	–	189
